Measured values reported in paper PMC4893818, “Folliculin directs the formation of a Rab34–RILP complex to control the nutrient‐dependent dynamic distribution of lysosomes” (EMBO Reports, 2016).

Experiments:
[1] = biological target: T1, GST-RILP (full ORF) (human, UniProt Q96NA2 1-401); test: pull-down; 0.1 nmol GST-RILP prebound to glutathione beads, lysate of HeLa cells in normal growth or starved 4 h; 25 mM HEPES pH 7.5, 150 mM NaCl, 2 mM MgCl2, 0.2% NP-40, 0.2% Triton X-100; Western blot; conditions: one partner purified
T1 construct: also called GST-RILP resin; source: E. coli BL21(DE3), purified (glutathione beads, eluted with glutathione, dialysed); not shown: GST, N-terminal, kept
T1 sequence (looked up): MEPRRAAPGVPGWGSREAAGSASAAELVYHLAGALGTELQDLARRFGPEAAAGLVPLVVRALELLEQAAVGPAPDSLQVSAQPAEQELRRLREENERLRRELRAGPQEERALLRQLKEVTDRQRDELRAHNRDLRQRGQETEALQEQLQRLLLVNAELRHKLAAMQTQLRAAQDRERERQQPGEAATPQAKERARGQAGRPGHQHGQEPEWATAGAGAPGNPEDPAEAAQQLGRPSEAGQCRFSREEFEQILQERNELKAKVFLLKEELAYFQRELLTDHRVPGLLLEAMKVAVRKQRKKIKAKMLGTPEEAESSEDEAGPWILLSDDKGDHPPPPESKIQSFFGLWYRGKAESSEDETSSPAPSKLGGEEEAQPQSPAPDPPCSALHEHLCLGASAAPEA

[2] = biological target: T1, GST-RILP (full ORF); test: pull-down; purified proteins: 0.2 nmol GST-RILP on glutathione beads; Rab34 proteins at 200 nM together with FLCN-DENN (1 uM; titrated 0 to 10 uM; 0.5 uM for wild-type Rab34); HEPES pH 7.5, 250 mM NaCl, 2 mM MgCl2, 1 mM GDP or GTPγS; 14 h at 4 °C; anti-His Western blot; conditions: both partners purified
[3] = biological target: T1, GST-RILP (full ORF); test: pull-down; GST-RILP or GST on beads, His-FLCN-DENN in E. coli extract; Western blot; conditions: one partner purified

B1: endogenous Rab34 (natural protein, UniProt Q9BZG1 1-259, looked up)
chain: MNILAPVRRDRVLAELPQCLRKEAALHGHKDFHPRVTCACQEHRTGTVGFKISKVIVVGDLSVGKTCLINRFCKDTFDKNYKATIGVDFEMERFEVLGIPFSLQLWDTAGQERFKCIASTYYRGAQAIIIVFNLNDVASLEHTKQWLADALKENDPSSVLLFLVGSKKDLSTPAQYALMEKDALQVAQEMKAEYWAVSSLTGENVREFFFRVAALTFEANVLAELEKSGARRIGDVVRINSDDSNLYLTASKKKPTCCP
notes: Rab34 small GTPase, endogenous in human cell lines; source: endogenous, HeLa lysate; endogenous, lysates of UOK257, UOK257-2, UOK257-FLCN and UOK257-FLCNΔDENN cells
- fold increase of Rab34 retained on GST-RILP, starved against normal growth [1]: ~2 fold

B2: His-tagged Rab34 WT (natural protein, mouse, UniProt Q64008 1-259, looked up)
chain: MNILAPVRRDRVLAELPQCLKKEAALHVRKDFHPRVTCACQEHRTGTVGFKISKVIVVGDLSVGKTCLINRFCKDTFDKNYKATIGVDFEMERFEVLGVPFSLQLWDTAGQERFKCIASTYYRGAQAIIIVFNLNDVASLEHTKQWLTDALKENDPSNVLLFLVGSKKDLSTPAQYSLMEKDALKVAQEIKAEYWAVSSLTGENVREFFFRVAALTFEANVLADVEKSGARHIADVVRINSDDKNLYLTASKKKATCCP
notes: Rab34, mouse, from an I.M.A.G.E. clone, in pET28 His-thrombin; loaded with GTPγS or GDP before the pull-down; also called wild-type Rab34; purified Rab34; source: E. coli, purified (His-trap FF, imidazole gradient)
- binding result [2]: binds

B3: His-tagged Rab34 Q111L (natural protein, mouse, UniProt Q64008 1-259, looked up)
chain: MNILAPVRRDRVLAELPQCLKKEAALHVRKDFHPRVTCACQEHRTGTVGFKISKVIVVGDLSVGKTCLINRFCKDTFDKNYKATIGVDFEMERFEVLGVPFSLQLWDTAGLERFKCIASTYYRGAQAIIIVFNLNDVASLEHTKQWLTDALKENDPSNVLLFLVGSKKDLSTPAQYSLMEKDALKVAQEIKAEYWAVSSLTGENVREFFFRVAALTFEANVLADVEKSGARHIADVVRINSDDKNLYLTASKKKATCCP
notes: Rab34, mouse, from an I.M.A.G.E. clone, in pET28 His-thrombin; assayed in the presence of 1 mM GTPγS; also called GTP hydrolysis-deficient (Q111L) Rab34; source: E. coli, purified (His-trap FF, imidazole gradient)
- fold enhancement of binding to RILP in the presence of FLCN-DENN (1 uM) against without it [2]: ~2.7 fold

B4: His-tagged human FLCN-DENN domain (amino acids 341-556) (domain or fragment, UniProt Q8NFG4 341-556, looked up)
chain: RKLPVFKSLRHMRQVLGAPSFRMLAWHVLMGNQVIWKSRDVDLVQSAFEVLRTMLPVGCVRIIPYSSQYEEAYRCNFLGLSPHVQIPPHVLSSEFAVIVEVHAAARSTLHPVGCEDDQSLSKYEFVVTSGSPVAADRVGPTILNKIEAALTNQNLSVDVVDQCLVCLKEEWMNKVKVLFKFTKVDSRPKEDTQKLLSILGASEEDNVKLLKFWMTG
notes: folliculin (FLCN), human, C-terminal DENN domain, amino acids 341-556, in pET28 His-thrombin; vector pET28 His-thrombin; detected by an anti-His antibody; also called His-FLCN-DENN; source: E. coli, purified (His-trap FF, imidazole gradient)
- binding result [3]: binds
